Measured values from the RNAGym collection of RNA variant scans (doi:10.1101/gr.219683.116).

B1: mRNA-splicing (parent)
chain: AGUUGCUGCUGGGAGCUCCAGCACAGUGAAAUGGACAGAAGGGCAGAGCAA

Variants of: B1
Assay: exon inclusion enrichment index; higher = more inclusion; WT1 exon 5 minigene, HEK293
For C6A U7C C9A U10C G21U, the “exon inclusion enrichment index” value was 3.09. For C6A U7C C9A U10C G21A, the “exon inclusion enrichment index” value was 3.08. For C6A U7C C9A U10C G21C, the “exon inclusion enrichment index” value was 3.66. In the case of C6A U7C C9A U10C A31C U32G, the “exon inclusion enrichment index” value is reported as 3.9. For C6A U7C C9A U10C A31C U32A, the “exon inclusion enrichment index” value was 2.78. For C6A U7C C9A U10C A31C U32C, the “exon inclusion enrichment index” value was 4.42. For C6A U7C C9A U10C C19A A20C, the “exon inclusion enrichment index” value was 2.73. With C6A U7C C9A U10C C19A A20G the “exon inclusion enrichment index” value was 0.968. In the case of C6A U7C C9A U10C C19A A20U, the “exon inclusion enrichment index” value is reported as 2.07. With C6A U7C C9A U10C G26C U27G the “exon inclusion enrichment index” value was 3.92. With C6A U7C C9A U10C G26C U27A the “exon inclusion enrichment index” value was 3.61. For C6A U7C C9A U10C G26C U27C, the “exon inclusion enrichment index” value was 4.37. With C6A U7C C9A U10C A45C the “exon inclusion enrichment index” value was 3.19. For C6A U7C C9A U10C A45U, the “exon inclusion enrichment index” value was 3.86. With C6A U7C C9A U10C A45G the “exon inclusion enrichment index” value was 4.95. For C6A U7C C9A U10C A35U, the “exon inclusion enrichment index” value was 1.36. For C6A U7C C9A U10C A35C, the “exon inclusion enrichment index” value was 1.54. For C6A U7C C9A U10C A35G, the “exon inclusion enrichment index” value was 1.79. With C6A U7C C9A U10C A40G G41A the “exon inclusion enrichment index” value was 1.83. For C6A U7C C9A U10C A40G G41U, the “exon inclusion enrichment index” value was 2.58. For C6A U7C C9A U10C A40G G41C, the “exon inclusion enrichment index” value was 3.6. In the case of C6A U7C C9A U10C A40C G41A, the “exon inclusion enrichment index” value is reported as 1.84. In the case of C6A U7C C9A U10C A40C G41C, the “exon inclusion enrichment index” value is reported as 3.56. In the case of C6A U7C C9A U10C A40C G41U, the “exon inclusion enrichment index” value is reported as 1.87. With C6A U7C C9A U10C C18U the “exon inclusion enrichment index” value was 2.7. With C6A U7C C9A U10C C18G the “exon inclusion enrichment index” value was 3.06. In the case of C6A U7C C9A U10C C18A, the “exon inclusion enrichment index” value is reported as 2.64. For C6A U7C C9A U10C A23C, the “exon inclusion enrichment index” value was 3.27. With C6A U7C C9A U10C A23U the “exon inclusion enrichment index” value was 2.78. In the case of C6A U7C C9A U10C A23G, the “exon inclusion enrichment index” value is reported as 4.36. For C6A U7C C9A U10C A23U C24A, the “exon inclusion enrichment index” value was 1.89. For C6A U7C C9A U10C A23U C24U, the “exon inclusion enrichment index” value was 0.978. In the case of C6A U7C C9A U10C A23U C24G, the “exon inclusion enrichment index” value is reported as 3.98. With C6A U7C C9A U10C G28A A29G the “exon inclusion enrichment index” value was 1.98. For C6A U7C C9A U10C G28A A29U, the “exon inclusion enrichment index” value was 1.29. In the case of C6A U7C C9A U10C G28A A29C, the “exon inclusion enrichment index” value is reported as 2.55. In the case of C6A U7C C9A U10C A20U G21C, the “exon inclusion enrichment index” value is reported as 3.73. In the case of C6A U7C C9A U10C A20U G21U, the “exon inclusion enrichment index” value is reported as 2.83. With C6A U7C C9A U10C A20U G21A the “exon inclusion enrichment index” value was 2.77. For C6A U7C C9A U10C C16G U17G, the “exon inclusion enrichment index” value was 0.621. With C6A U7C C9A U10C C16G U17A the “exon inclusion enrichment index” value was 3.24. In the case of C6A U7C C9A U10C C16G U17C, the “exon inclusion enrichment index” value is reported as 1.82. In the case of C6A U7C C9A U10C A23C C24U, the “exon inclusion enrichment index” value is reported as 2.26. For C6A U7C C9A U10C A23C C24A, the “exon inclusion enrichment index” value was 3.49. In the case of C6A U7C C9A U10C A23C C24G, the “exon inclusion enrichment index” value is reported as 4.61. For C6A U7C C9A U10C A35G C36G, the “exon inclusion enrichment index” value was 0.776. For C6A U7C C9A U10C A35G C36A, the “exon inclusion enrichment index” value was 2.29. With C6A U7C C9A U10C A35G C36U the “exon inclusion enrichment index” value was 0.107. With C6A U7C C9A U10C A35C C36G the “exon inclusion enrichment index” value was 2.56. In the case of C6A U7C C9A U10C A35C C36A, the “exon inclusion enrichment index” value is reported as 2.28. With C6A U7C C9A U10C A35C C36U the “exon inclusion enrichment index” value was 0.742. In the case of C6A U7C C9A U10C G15C C16G, the “exon inclusion enrichment index” value is reported as 3.44. For C6A U7C C9A U10C G15C C16U, the “exon inclusion enrichment index” value was 3.32. For C6A U7C C9A U10C G15C C16A, the “exon inclusion enrichment index” value was 2.79. With C6A U7C C9A U10C G12A the “exon inclusion enrichment index” value was 3.18. For C6A U7C C9A U10C G12U, the “exon inclusion enrichment index” value was 2.7. With C6A U7C C9A U10C G12C the “exon inclusion enrichment index” value was 3.68. With C6A U7C C9A U10C C24U A25U the “exon inclusion enrichment index” value was 2.88. With C6A U7C C9A U10C C24U A25G the “exon inclusion enrichment index” value was 3.92. With C6A U7C C9A U10C C24U A25C the “exon inclusion enrichment index” value was 4.21. In the case of C6A U7C C9A U10C G21U C22U, the “exon inclusion enrichment index” value is reported as 1.78. In the case of C6A U7C C9A U10C G21U C22G, the “exon inclusion enrichment index” value is reported as 3.54. For C6A U7C C9A U10C G21U C22A, the “exon inclusion enrichment index” value was 2.02. For C6A U7C C9A U10C C19U A20C, the “exon inclusion enrichment index” value was 3.08. For C6A U7C C9A U10C C19U A20U, the “exon inclusion enrichment index” value was 2.13. With C6A U7C C9A U10C C19U A20G the “exon inclusion enrichment index” value was 1.79. For C6A U7C C9A U10C A47U G48C, the “exon inclusion enrichment index” value was 2.31. For C6A U7C C9A U10C A47U G48U, the “exon inclusion enrichment index” value was 2.6. For C6A U7C C9A U10C A47U G48A, the “exon inclusion enrichment index” value was 2.69. For C6A U7C C9A U10C G13C A14G, the “exon inclusion enrichment index” value was 2.83. With C6A U7C C9A U10C G13C A14C the “exon inclusion enrichment index” value was 2.43. In the case of C6A U7C C9A U10C G13C A14U, the “exon inclusion enrichment index” value is reported as 2.57. For C6A U7C C9A U10C C18A C19A, the “exon inclusion enrichment index” value was 1.44. In the case of C6A U7C C9A U10C C18A C19U, the “exon inclusion enrichment index” value is reported as 0.374. With C6A U7C C9A U10C C18A C19G the “exon inclusion enrichment index” value was 0.998. With C6A U7C C9A U10C A31G U32G the “exon inclusion enrichment index” value was 2.7. For C6A U7C C9A U10C A31G U32A, the “exon inclusion enrichment index” value was 5.2. In the case of C6A U7C C9A U10C A31G U32C, the “exon inclusion enrichment index” value is reported as 4.39. In the case of C6A U7C C9A U10C G26A, the “exon inclusion enrichment index” value is reported as 3.92. With C6A U7C C9A U10C G26C the “exon inclusion enrichment index” value was 3.46. With C6A U7C C9A U10C G26U the “exon inclusion enrichment index” value was 3.34. In the case of C6A U7C C9A U10C C22U A23G, the “exon inclusion enrichment index” value is reported as 3.38. In the case of C6A U7C C9A U10C C22U A23C, the “exon inclusion enrichment index” value is reported as 2.11.
